# Results as given in patent publication US20030186281A1, “Modified tetracycline repressor protein compositions and methods of use” (priority 2001, published 2003).
# Where a chain is given by its changes, count along the chain named. Names may count otherwise.
# B1: TetRrevAF7/1: revTetR(BD) Y93C G96R K98N (protein)
# chain: MSRLDKSKVINSALELLNEVGIEGLTTRKLAQKLGVEQPTLYWHVKNKRALLDALAVEILARHHDYSLPAAGESWQSFLRNNAMSFRRALLRCRDRANVHLGTRPDEKQYDTVETQLRFMTENGFSLRDGLYAISAVSHFTLGAVLEQQEHTAALTDRPAAPDENLPPLLREALQIMDSDDGEQAFLHGLESLIRGFEVQLTALLQIV
# modifications: Modified tetracycline repressor
# notes: revTetR(BD) Y93C G96R K98N
# B2: TetRrevAD3/7: revTetR(BD) L17M E19D L52L D53Y A54A A56E (protein)
# chain: B1 chain with L17M, E19D, D53Y, A56E, C93Y, R96G, N98K
# modifications: Modified tetracycline repressor
# notes: revTetR(BD) L17M E19D L52L D53Y A54A A56E
# B3: TetRrevAD3/9: revTetR(BD) E15Q L17L L55M I59R (protein)
# chain: B1 chain with E15Q, L55M, I59R, C93Y, R96G, N98K
# modifications: Modified tetracycline repressor
# notes: revTetR(BD) E15Q L17L L55M I59R
# B4: TetRrevAtc4-13: revTetR(BD) E58N I59T L60F H63Y (protein)
# chain: B1 chain with E58N, I59T, L60F, H63Y, C93Y, R96G, N98K
# modifications: Modified tetracycline repressor
# notes: revTetR(BD) E58N I59T L60F H63Y
# B5: TetRrevAF2/16: revTetR(BD) E19V Y93C D95Y A97T K98N V99L L101L (protein)
# chain: B1 chain with E19V, D95Y, R96G, A97T, V99L
# modifications: Modified tetracycline repressor
# notes: revTetR(BD) E19V Y93C D95Y A97T K98N V99L L101L
# B6: TetRrevAtc4-11: revTetR(BD) L55L A56P R62S (protein)
# chain: B1 chain with A56P, R62S, C93Y, R96G, N98K
# modifications: Modified tetracycline repressor
# notes: revTetR(BD) L55L A56P R62S
# B7: TetRrevAF7/2: revTetR(BD) L14V E15V E23D K48K G96L G102A (protein)
# chain: B1 chain with L14V, E15V, E23D, C93Y, R96L, N98K, G102A
# modifications: Modified tetracycline repressor
# notes: revTetR(BD) L14V E15V E23D K48K G96L G102A
# B8: TetRrevAD3/5: revTetR(BD) L17L N18K E19V I22T 53Y A54S (protein)
# chain: B1 chain with N18K, E19V, I22T, D53Y, A54S, C93Y, R96G, N98K
# modifications: Modified tetracycline repressor
# notes: revTetR(BD) L17L N18K E19V I22T 53Y A54S
# B9: TetRrevAF4/9: revTetR(BD) L16R E19D E23D D95G V99A G102G (protein)
# chain: B1 chain with L16R, E19D, E23D, C93Y, D95G, R96G, N98K, V99A
# modifications: Modified tetracycline repressor
# notes: revTetR(BD) L16R E19D E23D D95G V99A G102G
# B10: TetRrevAF4/6: revTetR(BD) E15D L17I N18T E23G A54V D95A (protein)
# chain: B1 chain with E15D, L17I, N18T, E23G, A54V, C93Y, D95A, R96G, N98K
# modifications: Modified tetracycline repressor
# notes: revTetR(BD) E15D L17I N18T E23G A54V D95A
# B11: TetRrevAF2/14: revTetR(BD) L14L E15A L16L L17V N18N; V20V G96V (protein)
# chain: B1 chain with E15A, L17V, C93Y, R96V, N98K
# modifications: Modified tetracycline repressor
# notes: revTetR(BD) L14L E15A L16L L17V N18N; V20V G96V
# B12: TetRrevAF4/4: revTetR(BD) G24A R94P D95E G102D (protein)
# chain: B1 chain with G24A, C93Y, R94P, D95E, R96G, N98K, G102D
# modifications: Modified tetracycline repressor
# notes: revTetR(BD) G24A R94P D95E G102D
# B13: TetRrevAD3/8: revTetR(BD) L16L A56A V57E E58L I59N L60A (protein)
# chain: B1 chain with V57E, E58L, I59N, L60V, C93Y, R96G, N98K
# modifications: Modified tetracycline repressor
# notes: revTetR(BD) L16L A56A V57E E58L I59N L60A
# B14: TetRrevAF3/6: revTetR(BD) E23K D95H L101H (protein)
# chain: B1 chain with E23K, C93Y, D95H, R96G, N98K, L101H
# modifications: Modified tetracycline repressor
# notes: revTetR(BD) E23K D95H L101H
# B15: TetRrevAD3/6: revTetR(BD) V20G A56P I59L R62R (protein)
# chain: B1 chain with V20G, A56P, I59L, C93Y, R96G, N98K
# modifications: Modified tetracycline repressor
# notes: revTetR(BD) V20G A56P I59L R62R
# B16: TetRrevAF2/15: revTetR(BD) V20G I22N R49Q A50T (protein)
# chain: B1 chain with V20G, I22N, R49Q, A50T, C93Y, R96G, N98K
# modifications: Modified tetracycline repressor
# notes: revTetR(BD) V20G I22N R49Q A50T
# B17: TetRrevAF3/8: revTetR(BD) E15V L16L N18H E19D V20D R94P D95H H100N (protein)
# chain: B1 chain with E15V, N18H, E19D, V20D, C93Y, R94P, D95H, R96G, N98K, H100N
# modifications: Modified tetracycline repressor
# notes: revTetR(BD) E15V L16L N18H E19D V20D R94P D95H H100N
# B18: TetRrevAD3/10: revTetR(BD) N18Y G24G L51L D53Y A54V (protein)
# chain: B1 chain with N18Y, D53Y, A54V, C93Y, R96G, N98K
# modifications: Modified tetracycline repressor
# notes: revTetR(BD) N18Y G24G L51L D53Y A54V
# B19: TetRrevAF4/5: revTetR(BD) E15G L16L D95A V99G (protein)
# chain: B1 chain with E15G, C93Y, D95A, R96G, N98K, V99G
# modifications: Modified tetracycline repressor
# notes: revTetR(BD) E15G L16L D95A V99G
# B20: TetRrevAF3/5: revTetR(BD) V20F G21R R49S (protein)
# chain: B1 chain with V20F, G21R, R49S, A50T, C93Y, R96G, N98K
# modifications: Modified tetracycline repressor
# notes: revTetR(BD) V20F G21R R49S
# Tested on: tet operator sequence
# Test: β-galactosidase activity of a tetracycline-regulated promoter in transformed E. coli with revTetR, in the presence and absence of anhydrotetracycline (atc)
# Format: cell-based, Escherichia coli
# Settings: RevTetR isolate cultured in the absence of anhydrotetracycline (ATC)
# Description: The relative activity of revTetR repressors was determined at 28° C. and 37° C. for each clone by measuring β-galactosidase activity of a tetracycline-regulated promoter in transformed Escherichia coli in the presence and absence of the tetracycline analog, anhydrotetracycline (atc). The relative β-galactosidase activity was measured in standard Miller units and is presented as the percent of maximal expression as measured in the absence of Tet repressor. […] With respect to each mutant, as well as the wild-type controls, FIG. 2 provides two horizontal bars; the upper horizontal bar represents the level of β-galactosidase activity in the absence of anhydrotetracycline (−atc) while the lower horizontal bar represents the level of β-galactosidase activity in the presence of anhydrotetracycline (+atc).
# The pool of mutated Tet repressors was cloned into plasmid pWH1411 (Baumeister et al., 1992, Proteins: Struct. Funct. Genet. 14: 168-77), which carries a TetR(B) gene, to provide a TetR(BD) chimera that included, as the amino-terminal portion, amino acid residues 1 to 50 of the TetR(B) gene and, as the carboxyl-terminal portion, amino acid residues 51 to 208 of the TetR(D) gene. The resulting plasmid pool was screened in a genetic assay which positively selects for a functional interaction between a Tet repressor and its cognate operator using E. coli strain WH207(λWH25) (the construction of this strain is described in detail in Wissmann et al., (1991) Genetics 128: 225-32). In this E. coli strain, tet operators direct the expression of divergently arranged β-galactosidase (lacZ) and Lac repressor (lacI) genes and the lac regulatory region directs the expression of a galactokinase (galK) gene on plasmid pWH414. Binding of Tet repressors to tet operators turns off transcription of the lacI and lacZ genes. The absence of Lac repressor allows for expression of the galK gene, which enables the E. coli strain to use galactose as a sole carbon source, which serves as one marker. The lacZ^− phenotype serves as a second marker. Thus, bacteria containing Tet repressors which bind to tet operators, have a Gal^+, lacZ^− phenotype. Bacteria containing wild-type Tet repressors have a Gal^+, lacZ^− phenotype in the absence of tetracycline. Modified “reverse” Tet repressors (revTetR) were selected based upon a Gal^+, lacZ^− phenotype in the presence of tetracycline.
# The ability of each revTetR clone to bind to its cognate tet operator sequence and regulate transcription in a prokaryotic organism, Escherichia coli, in the presence and absence of a tetracycline analog (anhydrotetracycline, atc) was determined (Table 3, FIG. 2). The relative ratios of non-repressed to repressed levels of transcription for the 15 clones range from about 1.4-fold to about 50-fold at 28° C. and from about 1.3-fold to 40-fold at 37° C. For example, clone 4b comprising an amino acid substitution of glutamic acid for glycine at position 96 (e.g., SEQ ID NO. 24) repressed transcription 19-fold at 37° C. but to a less extent at 28° C. (5.7-fold, Table 3). Furthermore, clones 14, 5a and 7 comprising the arginine for glycine substitution at position 96 and further comprising a substitution or substitutions of serine for threonine at position 103 and valine for glutamic acid at position 114; leucine for proline at position 159; or glutamine to histidine at position 188, respectively, have pronouncedly different activities.
# wherein each underlined base was present in approximately 85% of the oligonucleotides, while the remaining approximately 15% of the oligonucleotides contained one of the other three, non-wild type bases at that position. Similar mutagenic, partially randomized oligonucleotides were prepared for mutagenesis of the coding regions for amino acids 14-25 and 93-102. It was predicted that, according to a binomial distribution, each oligonucleotide would contain three to four mutations. […]
row,Molecule,"β-Galactosidase Activity, Cultured Without ATC"
1,B1,89.3536
2,B2,73.4537
3,B3,60.2932
4,B4,98.8175
5,B5,90.6438
6,B6,103.132
7,B7,58.8637
8,B8,89.8129
9,B9,110.616
10,B10,100.702
11,B11,90.5688
12,B12,94.4528
13,B13,65.0174
14,B14,77.2272
15,B15,93.0552
16,B16,82.5755
17,B17,95.5476
18,B18,89.1669
19,B19,105.33
20,B20,101.824

# Same assay, conditions: RevTetR isolate cultured in the presence of anhydrotetracycline (ATC)
row,Molecule,"β-Galactosidase Activity, Cultured With ATC"
1,B1,1.3792
2,B2,2.4531
3,B3,4.2427
4,B4,8.1397
5,B5,2.622
6,B6,17.479
7,B7,3.7321
8,B8,1.1481
9,B9,1.3761
10,B10,3.7257
11,B11,1.239
12,B12,3.8273
13,B13,1.9046
14,B14,1.0546
15,B15,1.6494
16,B16,2.828
17,B17,2.7257
18,B18,3.5004
19,B19,0.9927
20,B20,4.696
